Results on 5 substances are retold here after publication PMC12048676.

Assay [1] addresses prenylated A647-Cdc42 (human) (UniProt P60953).
For assay [2], the target named is biotin-Cy3-Cdc42 (geranylgeranylated) (human) (UniProt P60953). The assay can be described thus: single-molecule dual-color TIRF microscopy, co-recruitment; 100 pM biotin-Cy3-Cdc42:A647-RhoGDI1 complex, imaged <2 min after dilution, captured on neutravidin-coated biotin-PEG coverslips; 50 mM HEPES pH 7.5, 50 mM NaCl, 2 mM MgCl2; 22 ms per frame; 23 °C.
Assay [3] deals with RhoGDI1 (Homo sapiens) (UniProt P52565). The settings on record: cited from earlier work.
UniProt P52565, sequence (P52565 2-204): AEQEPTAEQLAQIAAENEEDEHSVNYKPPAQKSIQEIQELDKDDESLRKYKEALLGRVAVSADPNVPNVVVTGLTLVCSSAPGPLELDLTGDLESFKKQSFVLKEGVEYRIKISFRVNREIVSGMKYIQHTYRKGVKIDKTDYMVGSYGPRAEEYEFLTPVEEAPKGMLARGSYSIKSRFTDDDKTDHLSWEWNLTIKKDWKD
The target in assay [4] is geranylgeranylated Cy3-Cdc42 (human) (UniProt P60953).
Assay [5] has as its target prenylated A647-Cdc42 (human) (UniProt P60953). The source holds these as a separate data set.
Assay [6] shares this target. The source holds these as a separate data set.

Cdc42, sequence (P60953 1-188): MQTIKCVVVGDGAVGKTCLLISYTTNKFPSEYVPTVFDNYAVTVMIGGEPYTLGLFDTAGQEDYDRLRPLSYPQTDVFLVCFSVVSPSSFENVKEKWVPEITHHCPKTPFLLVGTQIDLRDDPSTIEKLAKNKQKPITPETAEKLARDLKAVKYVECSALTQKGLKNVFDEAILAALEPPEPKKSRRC

Regarding “A488-2xwCRIB (from UniProt P42768 201-268; P42768 201-268) (domain or fragment)”, the dwell time of A647-Cdc42 on the membrane inside the GEF-containing region in microfluidic flow-out, with 2xwCRIB in assay [1] is 1.4 fold.
As for “A647-RhoGDI1 (from UniProt P19803 1-204) (natural protein)”, in assay [2], the fraction of Cdc42 molecules co-recruited with RhoGDI1 came to 63%.
Cdc42 (from UniProt P60953): the Kd (as a rule, the concentration at which binding is half-saturated) in assay [3] is 0.09 nM.
Regarding “RhoGDI1 (unlabeled) (from UniProt P19803 1-204) (natural protein)”, the maximal rate of nucleotide exchange (Cy5-GDP to unlabeled GDP) from Cy5-GDP:Cy3-Cdc42:RhoGDI1 complexes (100 nM) with ITSNcat-His10 pre-bound to PM LUVs, GEF concentration varied in assay [4] was 0.0002 s⁻¹. Moreover, the concentration of Cdc42:RhoGDI1 complexes against free Cdc42 needed to reach similar levels of membrane-bound GTPase on SLBs (600 nM vs 5.5 nM) in assay [5] is 100 fold.
With “full-length Atto488-N-WASP (from UniProt O00401 1-505) (natural protein)”, the patterning index of A647-Cdc42 (inside against outside of GEF-containing areas) after GEF addition in the presence of Atto488-N-WASP in assay [6] worked out at 1.35.
